# Data as given in the supplement of paper PMC10567573.
# B1: CCDC6 (parent)
# chain: ASVTIQARAEQEEEFISNTLFKKI
# B2: ZNF449 (parent)
# chain: CTHCSKSFRQRAGLIMHQVTHFRG
# Variants of: B1
# Experiment: protein stability index of a GFP-peptide fusion (GPS, HEK-293T) (PSI 1-6); higher = more stable
# Settings: c terminus: a fixed tail appended
# 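Further: lentivirally expressed fusions sorted by FACS into six bins by GFP to DsRed ratio, PSI derived from sequencing read proportions per bin multiplied by bin number.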
row,Variant,protein stability index
1,DSVTIQARAEQEEEFISNTLFKKI,4.27
2,ESVTIQARAEQEEEFISNTLFKKI,4.39
3,FSVTIQARAEQEEEFISNTLFKKI,2.08
4,CSVTIQARAEQEEEFISNTLFKKI,3.07
5,GSVTIQARAEQEEEFISNTLFKKI,3.98

# Variants of: B2
# Experiment: as above
# Settings: c terminus: a fixed tail appended
row,Variant,protein stability index
1,CTHCSKSFRQRAGLIMHQVTCFRG,2.53
2,CTHCSKSFRQRAGLIMHQVTWFRG,2.41
3,CTHCSKSFRQRAGLIMHQVTVFRG,1.91
4,CTHCSKSFRQRAGLIMHQVTFFRG,1.8
5,CTHCSKSFRQRAGLIMHQVTYFRG,1.4
6,CTHCSKSFRQRAGLIMHQVTLFRG,1.97
7,CTHCSKSFRQRAGLIMHQVTAFRG,2.17
8,CTHCSKSFRQRAGLIMHQVTSFRG,1.29
9,CTHCSKSFRQRAGLIMHQVTRFRG,1.85
10,CTHCSKSFRQRAGLIMHQVTEFRG,1.89
11,CTHCSKSFRQRAGLIMHQVTGFRG,1.55
12,CTHCSKSFRQRAGLIMHQVTMFRG,2.56
13,CTHCSKSFRQRAGLIMHQVTPFRG,1.49
14,CTHCSKSFRQRAGLIMHQVTQFRG,1.35
15,CTHCSKSFRQRAGLIMHQVTIFRG,2.39
16,CTHCSKSFRQRAGLIMHQVTTFRG,1.47
17,CTHCSKSFRQRAGLIMHQVTKFRG,2.28
18,CTHCSKSFRQRAGLIYHQVTHFRG,1.57
19,CTHCSKSFRQRAGLIRHQVTHFRG,3.9
20,CTHCSKSFRQRAGLITHQVTHFRG,2.78
21,CTHCSKSFRQRAGLIDHQVTHFRG,3.52
22,CTHCSKSFRQRAGLIEHQVTHFRG,3.85
23,CTHCSKSFRQRAGLIPHQVTHFRG,1.65

row,Variant,protein stability index
1,CTHCSKSFRQRAGLIFHQVTHFRG,2.18
2,CTHCSKSFRQRAGLIWHQVTHFRG,1.52
3,CTHCSKSFRQRAGLIAHQVTHFRG,3.98
4,CTHCSKSFRQRAGLIHHQVTHFRG,2.43
5,CTHCSKSFRQRAGLICHQVTHFRG,2.64
6,CTHCSKSFRQRAGLIKHQVTHFRG,3.55
7,CTHCSKSFRQRAGLISHQVTHFRG,3.15
8,CTHCSKSFRQRAGLINHQVTHFRG,2.86
9,CTHCSKSFRQRAGLIIHQVTHFRG,3.24
10,CTHCSKSFRQRAGLIVHQVTHFRG,2
11,CTHCSKSFRQRAGLILHQVTHFRG,1.98
12,CTHCSKSFRQRAGLIGHQVTHFRG,3.45
13,CTHCSKSFRQRAGLIQHQVTHFRG,3.57
14,CTHCSKSFRQRAGLIMHYVTHFRG,3.18
15,CTHCSKSFRQRAGLIMHFVTHFRG,1.67
16,CTHCSKSFRQRAGLIMHKVTHFRG,1.69
17,CTHCSKSFRQRAGLIMHHVTHFRG,1.72
18,CTHCSKSFRQRAGLIMHTVTHFRG,1.43
19,CTHCSKSFRQRAGLIMHGVTHFRG,1.32
20,CTHCSKSFRQRAGLIMHCVTHFRG,1.9
21,CTHCSKSFRQRAGLIMHNVTHFRG,1.53
22,CTHCSKSFRQRAGLIMHSVTHFRG,2.48
23,CTHCSKSFRQRAGLIMHEVTHFRG,2.09

row,Variant,protein stability index
1,CTHCSKSFRQRAGLIMHLVTHFRG,2.11
2,CTHCSKSFRQRAGLIMHDVTHFRG,2.79
3,CTHCSKSFRQRAGLIMHAVTHFRG,1.51
4,CTHCSKSFRQRAGLIMHPVTHFRG,3.9
5,CTHCSKSFRQRAGLIMHMVTHFRG,1.69
6,CTHCSKSFRQRAGLIMHVVTHFRG,1.52
7,CTHCSKSFRQRAGLIMHWVTHFRG,1.29
8,CTHCSKSFRQRAGLIMHIVTHFRG,1.96
9,CTHCSKSFRQRAGLIMHRVTHFRG,1.73
10,CTHCSKSFRQRAGLIMHQVTHFQG,2.6
11,CTHCSKSFRQRAGLIMHQVTHFIG,3.44
12,CTHCSKSFRQRAGLIMHQVTHFDG,2.49
13,CTHCSKSFRQRAGLIMHQVTHFNG,2.15
14,CTHCSKSFRQRAGLIMHQVTHFEG,2.93
15,CTHCSKSFRQRAGLIMHQVTHFWG,3.55
16,CTHCSKSFRQRAGLIMHQVTHFGG,2.37
17,CTHCSKSFRQRAGLIMHQVTHFLG,3.36
18,CTHCSKSFRQRAGLIMHQVTHFAG,2.97
19,CTHCSKSFRQRAGLIMHQVTHFVG,3.18
20,CTHCSKSFRQRAGLIMHQVTHFHG,1.62
21,CTHCSKSFRQRAGLIMHQVTHFSG,2.07
22,CTHCSKSFRQRAGLIMHQVTHFYG,2.36
23,CTHCSKSFRQRAGLIMHQVTHFKG,2.7

row,Variant,protein stability index
1,CTHCSKSFRQRAGLIMHQVTHFMG,2.44
2,CTHCSKSFRQRAGLIMHQVTHFPG,2.69
3,CTHCSKSFRQRAGLIMHQVTHFTG,2.03
4,CTHCSKSFRQRAGLIMHQVTHFCG,2.56
5,CTHCSKSFRQRAGLIMHQVTHFFG,3.33
6,CTHCSKSFRQRAGLIMHQKTHFRG,3.79
7,CTHCSKSFRQRAGLIMHQFTHFRG,2.4
8,CTHCSKSFRQRAGLIMHQCTHFRG,3.24
9,CTHCSKSFRQRAGLIMHQITHFRG,2.91
10,CTHCSKSFRQRAGLIMHQGTHFRG,2.74
11,CTHCSKSFRQRAGLIMHQATHFRG,2.01
12,CTHCSKSFRQRAGLIMHQHTHFRG,1.89
13,CTHCSKSFRQRAGLIMHQMTHFRG,2.12
14,CTHCSKSFRQRAGLIMHQWTHFRG,2.71
15,CTHCSKSFRQRAGLIMHQPTHFRG,1.76
16,CTHCSKSFRQRAGLIMHQYTHFRG,2.55
17,CTHCSKSFRQRAGLIMHQNTHFRG,2.82
18,CTHCSKSFRQRAGLIMHQRTHFRG,3.95
19,CTHCSKSFRQRAGLIMHQTTHFRG,1.88
20,CTHCSKSFRQRAGLIMHQDTHFRG,1.81
21,CTHCSKSFRQRAGLIMHQQTHFRG,2
22,CTHCSKSFRQRAGLIMHQLTHFRG,2.92
23,CTHCSKSFRQRAGLIMHQETHFRG,3.08

row,Variant,protein stability index
1,CTHCSKSFRQRAGLIMHQSTHFRG,1.79
2,CTHCSKSFRQRAGLIMHQVTHYRG,2.45
3,CTHCSKSFRQRAGLIMHQVTHRRG,3.58
4,CTHCSKSFRQRAGLIMHQVTHVRG,2.14
5,CTHCSKSFRQRAGLIMHQVTHLRG,1.93
6,CTHCSKSFRQRAGLIMHQVTHGRG,2.61
7,CTHCSKSFRQRAGLIMHQVTHIRG,1.92
8,CTHCSKSFRQRAGLIMHQVTHWRG,1.08
9,CTHCSKSFRQRAGLIMHQVTHKRG,2.06
10,CTHCSKSFRQRAGLIMHQVTHARG,1.72
11,CTHCSKSFRQRAGLIMHQVTHMRG,2.18
12,CTHCSKSFRQRAGLIMHQVTHDRG,2.37
13,CTHCSKSFRQRAGLIMHQVTHSRG,2.2
14,CTHCSKSFRQRAGLIMHQVTHTRG,1.98
15,CTHCSKSFRQRAGLIMHQVTHQRG,2.5
16,CTHCSKSFRQRAGLIMHQVTHNRG,2.39
17,CTHCSKSFRQRAGLIMHQVTHCRG,3.06
18,CTHCSKSFRQRAGLIMHQVTHERG,1.98
19,CTHCSKSFRQRAGLIMHQVTHHRG,3.29
20,CTHCSKSFRQRAGLIMHQVTHPRG,1.58
21,CTHCSKSFRQRAGLKMHQVTHFRG,2.36
22,CTHCSKSFRQRAGLMMHQVTHFRG,2.49
23,CTHCSKSFRQRAGLAMHQVTHFRG,2.39

row,Variant,protein stability index
1,CTHCSKSFRQRAGLTMHQVTHFRG,2.3
2,CTHCSKSFRQRAGLRMHQVTHFRG,2.66
3,CTHCSKSFRQRAGLPMHQVTHFRG,1.22
4,CTHCSKSFRQRAGLDMHQVTHFRG,2.93
5,CTHCSKSFRQRAGLQMHQVTHFRG,2.76
6,CTHCSKSFRQRAGLYMHQVTHFRG,2.44
7,CTHCSKSFRQRAGLFMHQVTHFRG,2.4
8,CTHCSKSFRQRAGLGMHQVTHFRG,1.94
9,CTHCSKSFRQRAGLSMHQVTHFRG,3.21
10,CTHCSKSFRQRAGLEMHQVTHFRG,3.59
11,CTHCSKSFRQRAGLVMHQVTHFRG,3.12
12,CTHCSKSFRQRAGLWMHQVTHFRG,2.9
13,CTHCSKSFRQRAGLNMHQVTHFRG,1.73
14,CTHCSKSFRQRAGLHMHQVTHFRG,2.2
15,CTHCSKSFRQRAGLIMHQVKHFRG,2.33
16,CTHCSKSFRQRAGLIMHQVVHFRG,1.73
17,CTHCSKSFRQRAGLIMHQVRHFRG,2.14
18,CTHCSKSFRQRAGLIMHQVYHFRG,2.05
19,CTHCSKSFRQRAGLIMHQVQHFRG,1.83
20,CTHCSKSFRQRAGLIMHQVSHFRG,1.45
21,CTHCSKSFRQRAGLIMHQVAHFRG,2.04
22,CTHCSKSFRQRAGLIMHQVGHFRG,2.06
23,CTHCSKSFRQRAGLIMHQVDHFRG,2.18

row,Variant,protein stability index
1,CTHCSKSFRQRAGLIMHQVEHFRG,1.99
2,CTHCSKSFRQRAGLIMHQVHHFRG,2.33
3,CTHCSKSFRQRAGLIMHQVCHFRG,1.52
4,CTHCSKSFRQRAGLIMHQVWHFRG,2.09
5,CTHCSKSFRQRAGLIMHQVNHFRG,2.44
6,CTHCSKSFRQRAGLIMHQVLHFRG,1.43
7,CTHCSKSFRQRAGLIMHQVMHFRG,1.56
8,CTHCSKSFRQRAGLIMHQVFHFRG,2.09
9,CTHCSKSFRQRAGLIMHQVIHFRG,2.57
10,CTHCSKSFRQRAGLIMHQVTHFRM,2.81
11,CTHCSKSFRQRAGLIMHQVTHFRF,2.68
12,CTHCSKSFRQRAGLIMHQVTHFRP,3.29
13,CTHCSKSFRQRAGLIMHQVTHFRR,2.29
14,CTHCSKSFRQRAGLIMHQVTHFRA,2.82
15,CTHCSKSFRQRAGLIMHQVTHFRE,2.88
16,CTHCSKSFRQRAGLIMHQVTHFRC,2.53
17,CTHCSKSFRQRAGLIMHQVTHFRY,2.41
18,CTHCSKSFRQRAGLIMHQVTHFRL,3.55
19,CTHCSKSFRQRAGLIMHQVTHFRS,2.33
20,CTHCSKSFRQRAGLIMHQVTHFRW,3.25
21,CTHCSKSFRQRAGLIMHQVTHFRH,2.17
22,CTHCSKSFRQRAGLIMHQVTHFRQ,3.19
23,CTHCSKSFRQRAGLIMHQVTHFRD,3.59

row,Variant,protein stability index
1,CTHCSKSFRQRAGLIMHQVTHFRV,3.46
2,CTHCSKSFRQRAGLIMHQVTHFRI,2.44
3,CTHCSKSFRQRAGLIMHQVTHFRN,2.91
4,CTHCSKSFRQRAGLIMHQVTHFRT,2.69
5,CTHCSKSFRQRAGLIMHQVTHFRK,3.01
6,CTHCSKSFRQRAGVIMHQVTHFRG,2.37
7,CTHCSKSFRQRAGYIMHQVTHFRG,1.5
8,CTHCSKSFRQRAGWIMHQVTHFRG,2.05
9,CTHCSKSFRQRAGTIMHQVTHFRG,2.09
10,CTHCSKSFRQRAGLIMRQVTHFRG,1.82
11,CTHCSKSFRQRAGLIMMQVTHFRG,2.44
12,CTHCSKSFRQRAGLIMNQVTHFRG,1.43
13,CTHCSKSFRQRAGLIMPQVTHFRG,1.03
14,CTHCSKSFRQRAGLIMEQVTHFRG,2.36
15,CTHCSKSFRQRAGLIMTQVTHFRG,1.47
16,CTHCSKSFRQRAGLIMWQVTHFRG,2.12
17,CTHCSKSFRQRAGLIMGQVTHFRG,3.28
18,CTHCSKSFRQRAGLIMKQVTHFRG,2.24
19,CTHCSKSFRQRAGLIMDQVTHFRG,2.46
20,CTHCSKSFRQRAGLIMCQVTHFRG,2.29
21,CTHCSKSFRQRAGLIMIQVTHFRG,2.52
22,CTHCSKSFRQRAGLIMLQVTHFRG,1.69
